Experimental data published in PMC9352529.

Tests used:
[1] = target: human GABAA receptor α1 subunit (HEK293T cells stably expressing α1β2γ2) (human); assay: co-IP; HEK293T cells stably expressing α1β2γ2 GABAA receptors, treated with non-targeting siRNA or siRNAs against both EMC3 and EMC6 for 48 h; lysate incubated with anti-α1 antibody; blot for SEC61α and α1
[2] = target: FLAG-tagged EMC3 R180A (human) (human) (UniProt Q9P0I2); assay: co-IP; HEK293T cells stably expressing α1β2γ2 GABAA receptors, transiently transfected with FLAG-tagged EMC3 variants, or with FLAG-tagged EMC5 and EMC6 variants; lysate (50 mM Tris pH 7.5, 150 mM NaCl, 2 mM DDM) on anti-FLAG M2 magnetic beads overnight at 4°C; blot for α1 and FLAG; band intensity of α1 over FLAG
[3] = target: FLAG-tagged EMC6 D27A (human) (human) (UniProt Q9BV81); assay: as above
[4] = target: FLAG-tagged EMC3 R31A (human) (human) (UniProt Q9P0I2); assay: as above
[5] = target: FLAG-tagged EMC6 N22A (human) (human) (UniProt Q9BV81); assay: as above

Row | Substance | normalized SEC61α over α1 intensity after IP, knock-down of both EMC3 and EMC6 against non-targeting siRNA [1] | normalized α1 intensity over FLAG after IP, relative to WT EMC3 (relative to WT EMC3) [2] | α1 band intensity over FLAG-tagged EMC6 after IP, relative to WT EMC6 (relative to WT EMC6) [3] | normalized α1 intensity over FLAG after IP, relative to WT EMC3 (relative to WT EMC3) [4] | α1 band intensity over FLAG-tagged EMC6 after IP, relative to WT EMC6 (relative to WT EMC6) [5]
1 | SEC61α (endogenous, HEK293T) (from UniProt P61619 1-476) (natural protein) | 5.3 fold | – | – | – | –
2 | human GABAA receptor α1 subunit (HEK293T cells stably expressing α1β2γ2) (natural protein) | – | 0.4 | 0.72 | 0.48 | 0.55
